{"source": "paper PMC11287749", "about": "“Optical Aptamer-Based Cytokine Nanosensor Detects Macrophage Activation by Bacterial Toxins”", "biological_target": "IL-6 (human recombinant, Invitrogen) (Homo sapiens, UniProt P05231 30-212)", "sequence (P05231 30-212)": "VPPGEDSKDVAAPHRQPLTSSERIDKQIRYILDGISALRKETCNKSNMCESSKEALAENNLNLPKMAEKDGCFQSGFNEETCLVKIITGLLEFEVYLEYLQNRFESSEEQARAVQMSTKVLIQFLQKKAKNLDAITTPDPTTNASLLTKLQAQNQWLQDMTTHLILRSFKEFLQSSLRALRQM", "assay": "SWCNT NIR fluorescence; PBS, 5250 ng/mL IL-6, 3 h; p = 0.66; 0.5 mg/L SWCNT-ssDNA in 1x PBS (or 1x PBS + 10% FBS), 5250 ng/mL IL-6, 120 uL, up to 180 min; pH and temperature not stated in the material", "settings": "protein: commercial", "data": [{"binder": "GTGTGTGTGTGTGTGTGTGTGTGTGTGTGT (ssDNA, noncovalently adsorbed on SWCNT)", "note": "[(GT)15 control]", "values": [{"measurement": "binding result", "value": "no binding"}]}]}
